Test results taken from patent US6635429B1.

B1: mRXR-α (receptor)
chain: MDTKHFLPLDFSTQVNSSSLNSPTGRGSMAVPSLHPSLGPGIGSPLGSPGQLHSPISTLSSPINGMGPPFSVISSPMGPHSMSVPTTPTLGFGTGSPQLNSPMNPVSSTEDIKPPLGLNGVLKVPAHPSGNMASFTKHICAICGDRSSGKHYGVYSCEGCKGFFKRTVRKDLTYTCRDNKDCLIDKRQRNRCQYCRYQKCLAMGMKREAVQEERQRGKDRNENEVESTSSANEDMPVEKILEAELAVEPKTETYVEANMGLNPSSPNDPVTNICQAADKQLFTLVEWAKRIPHFSELPLDDQVILLRAGWNELLIASFSHRSIAVKDGILLATGLHVHRNSAHSAGVGAIFDRVLTELVSKMRDMQMDKTELGCLRAIVLFNPDSKGLSNPAEVEALREKVYASLEAYCKHKYPEQPGRFAKLLLRLPALRSIGLKCLEHLFFFKLIGDTPIDTFLMEMLEAPHQAT
B2: purified HeLa cell RBF (HAP-TSK) (receptor)
chain: MSWAARPPFLPQRHAAGQCGPVGVRKEMHCGVASRWRRRRPWLDPAAAAAAAVAGGEQQTPEPEPGEAGRDGMGDSGRDSRSPDSSSPNPLPQGVPPPSPPGPPLPPSTAPTLGGSGAPPPPPMPPPPLGSPFPVISSSMGSPGLPPPAPPGFSGPVSSPQINSTVSLPGGGSGPPEDVKPPVLGVRGLHCPPPPGGPGAGKRLCAICGDRSSGKHYGVYSCEGCKGFFKRTIRKDLTYSCRDNKDCTVDKRQRNRCQYCRYQKCLATGMKREAVQEERQRGKDKDGDGEGAGGAPEEMPVDRILEAELAVEQKSDQGVEGPGGTGGSGSSPNDPVTNICQAADKQLFTLVEWAKRIPHFSSLPLDDQVILLRAGWNELLIASFSHRSIDVRDGILLATGLHVHRNSAHSAGVGAIFDRVLTELVSKMRDMRMDKTELGCLRAIILFNPDAKGLSNPSEVEVLREKVYASLETYCKQKYPEQQGRFAKLLLRLPALRSIGLKCLEHLFFFKLIGDTPIDTFLMEMLEAPHQLA

Columns and labels:
[1] = target: bacterially-expressed hRAR-γ (human) (UniProt P13631); experiment: complementation gel retardation with bacterially-expressed hRAR-γ on β-RARE; cpm in the complex per µg of protein of the purification step

Binder	OMPdecase activity of the DR1-URA3 reporter in yeast (mRXR-α (mouse)) [fold]	Specific Activity (cpm/µg) [1] [cpm/µg]
B1	30	–
B2	–	7.75e+06
